Assay results: US20030124152A1

Target: Human collagen Type I (acid soluble) (human) (UniProt P02452)
Test: cell-based or functional assay

Chain of UniProt P02452 (P02452 162-1218 limits assumed, chain 1 of 2): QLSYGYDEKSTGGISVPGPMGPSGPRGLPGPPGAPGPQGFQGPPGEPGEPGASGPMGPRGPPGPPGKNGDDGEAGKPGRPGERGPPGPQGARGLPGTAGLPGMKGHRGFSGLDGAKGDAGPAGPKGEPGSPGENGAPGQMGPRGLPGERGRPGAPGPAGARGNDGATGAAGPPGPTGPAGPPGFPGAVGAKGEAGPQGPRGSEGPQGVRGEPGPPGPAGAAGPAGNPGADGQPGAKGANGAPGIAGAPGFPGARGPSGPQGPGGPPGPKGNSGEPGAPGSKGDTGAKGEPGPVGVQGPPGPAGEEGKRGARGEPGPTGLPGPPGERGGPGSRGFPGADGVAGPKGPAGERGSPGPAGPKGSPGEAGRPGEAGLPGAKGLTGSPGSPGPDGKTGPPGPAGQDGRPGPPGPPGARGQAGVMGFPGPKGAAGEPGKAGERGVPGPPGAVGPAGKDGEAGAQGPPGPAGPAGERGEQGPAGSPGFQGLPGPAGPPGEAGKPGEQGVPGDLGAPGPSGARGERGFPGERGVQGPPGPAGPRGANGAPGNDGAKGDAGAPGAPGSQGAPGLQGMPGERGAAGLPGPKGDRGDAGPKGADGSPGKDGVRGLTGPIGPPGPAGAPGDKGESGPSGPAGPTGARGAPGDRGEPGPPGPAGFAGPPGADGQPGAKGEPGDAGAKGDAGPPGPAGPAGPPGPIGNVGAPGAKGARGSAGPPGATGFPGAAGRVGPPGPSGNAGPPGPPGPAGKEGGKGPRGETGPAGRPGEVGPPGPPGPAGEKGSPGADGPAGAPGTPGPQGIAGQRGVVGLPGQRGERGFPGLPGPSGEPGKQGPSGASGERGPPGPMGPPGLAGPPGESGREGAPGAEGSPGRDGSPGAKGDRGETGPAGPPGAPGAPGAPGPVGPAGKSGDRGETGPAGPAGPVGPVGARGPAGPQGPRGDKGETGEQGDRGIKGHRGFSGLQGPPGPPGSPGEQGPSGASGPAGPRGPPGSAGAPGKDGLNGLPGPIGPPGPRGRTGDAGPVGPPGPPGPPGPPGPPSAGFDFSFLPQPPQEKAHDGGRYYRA
Chain of UniProt P02452 (P08123 80-1119 limits assumed, chain 2 of 2, further chain): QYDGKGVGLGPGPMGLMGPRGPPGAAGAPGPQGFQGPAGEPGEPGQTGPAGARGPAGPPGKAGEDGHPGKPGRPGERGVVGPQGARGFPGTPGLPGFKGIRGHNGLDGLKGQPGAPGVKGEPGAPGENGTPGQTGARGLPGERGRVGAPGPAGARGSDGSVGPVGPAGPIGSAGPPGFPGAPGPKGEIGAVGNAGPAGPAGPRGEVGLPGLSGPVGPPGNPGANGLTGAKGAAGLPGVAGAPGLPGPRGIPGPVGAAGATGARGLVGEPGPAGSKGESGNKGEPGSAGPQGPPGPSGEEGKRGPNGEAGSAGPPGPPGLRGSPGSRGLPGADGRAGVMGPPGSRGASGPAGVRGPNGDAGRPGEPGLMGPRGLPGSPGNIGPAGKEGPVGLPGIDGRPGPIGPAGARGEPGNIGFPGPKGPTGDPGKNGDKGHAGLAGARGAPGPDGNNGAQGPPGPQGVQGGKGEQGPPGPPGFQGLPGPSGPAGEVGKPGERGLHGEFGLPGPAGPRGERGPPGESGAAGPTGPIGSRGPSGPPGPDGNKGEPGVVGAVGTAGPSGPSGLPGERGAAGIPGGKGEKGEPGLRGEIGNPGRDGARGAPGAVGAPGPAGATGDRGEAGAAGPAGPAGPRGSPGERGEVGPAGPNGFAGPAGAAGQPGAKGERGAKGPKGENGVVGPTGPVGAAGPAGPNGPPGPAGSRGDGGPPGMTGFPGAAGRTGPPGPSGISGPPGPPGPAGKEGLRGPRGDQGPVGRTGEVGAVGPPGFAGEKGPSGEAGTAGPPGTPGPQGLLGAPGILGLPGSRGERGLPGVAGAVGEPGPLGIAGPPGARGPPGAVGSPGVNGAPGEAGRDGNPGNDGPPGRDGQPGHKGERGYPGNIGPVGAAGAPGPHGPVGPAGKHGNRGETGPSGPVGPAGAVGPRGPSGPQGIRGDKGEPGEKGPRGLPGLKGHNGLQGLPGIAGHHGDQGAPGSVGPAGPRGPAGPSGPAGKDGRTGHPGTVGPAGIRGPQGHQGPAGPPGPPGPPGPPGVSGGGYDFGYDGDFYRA

Collagen Protection Assay, collagen band density, C + D + Z, 0 min (optical density/mm^2): 10.4
Collagen Protection Assay, collagen band density, C + D + Z, 30 min (optical density/mm^2): 9.37
Collagen Protection Assay, collagen band density, C + D + Z, 60 min (optical density/mm^2): 5.89
Collagen Protection Assay, collagen band density, C + D + Z, 90 min (optical density/mm^2): 1.67
Collagen Type I Degradation Rate (%), C + D + Z, 30 min: 9.49%
Collagen Type I Degradation Rate (%), C + D + Z, 60 min: 37.1%
Collagen Type I Degradation Rate (%), C + D + Z, 90 min: 71.6%
B1: human decorin core protein (HDCP) (protein)
chain: VEASGIGPEVPDDRDFEPSLGPVCPFRCQCHLRVVQCSDLGLDKVPKDLPPDTTLLDLQNNKITEIKDGDFKNLKNLHALILVNNKISKVSPGAFTPLVKLERLYLSKNQLKELPEKMPKTLQELRAHENEITKVRKVTFNGLNQMIVIELGTNPLKSSGIENGAFQGMKKLSYIRIADTNITSIPQGLPPSLTELHLDGNKISRVDAASLKGLNNLAKLGLSFNSISAVDNGSLANTPHLRELHLDNNKLTRVPGGLAEHKYIQVVYLHNNNISVVGSSDFCPPGHNTKKASYSGVSLFSNPVQYWEIQPSTFRCVYVRSAIQLGNYK
modifications: possible initiator Met
